This note sets out measurements from article PMC4911930.

For the experiment, the target named is CENP-T^HFD/-W complex, Q5EE01. Description: GST pull-down (Coomassie gel quantification). The settings on record: chain shown with the change, parent: est. 100, read off a plot.
Chain of CENP-T^HFD/-W complex, Q5EE01 (chain, as listed by the source, chain 1 of 2): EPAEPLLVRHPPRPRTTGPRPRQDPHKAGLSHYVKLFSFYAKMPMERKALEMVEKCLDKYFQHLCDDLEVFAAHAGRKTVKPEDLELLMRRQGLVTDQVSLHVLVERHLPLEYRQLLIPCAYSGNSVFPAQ
Chain of CENP-T^HFD/-W complex, Q5EE01 (Q5EE01 whole entry, chain 2 of 2): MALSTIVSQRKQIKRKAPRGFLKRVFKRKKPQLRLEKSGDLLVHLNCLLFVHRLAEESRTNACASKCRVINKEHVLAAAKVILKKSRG

B1: GST-Spt16 amino acids 926–965, Q9Y5B9 E935A; E936A; G937A; D938A; S939A (peptide)
chain: EPEGEGSDAAAAAAESEIEDETFNPSEDDYEEEEEDSDED
Regarding B1, the percent of parent (Exp=1) was found to be 81 % Pull-down and the percent of parent (Exp=2) was determined as 90 % Pull-down.
